This series concerns the molecule itself. Put plainly: cross-linking; cells without TNFα stimulation, 1 mM BS3 for 30 min at room temperature on whole cells; RIPA lysate, nonreducing SDS-PAGE, anti-Flag blot.

For orientation: stoichiometry N means the number of molecules, sites or subunits per partner or assembly.

B1: TNF receptor 2 (TNFR2) with a 3x FLAG tag, overexpressed in K562/ADR cells (bisected N-glycans lacking) (receptor, human, UniProt P20333 23-461, looked up)
chain: LPAQVAFTPYAPEPGSTCRLREYYDQTAQMCCSKCSPGQHAKVFCTKTSDTVCDSCEDSTYTQLWNWVPECLSCGSRCSSDQVETQACTREQNRICTCRPGWYCALSKQEGCRLCAPLRKCRPGFGVARPGTETSDVVCKPCAPGTFSNTTSSTDICRPHQICNVVAIPGNASMDAVCTSTSPTRSMAPGAVHLPQPVSTRSQHTQPTPEPSTAPSTSFLLPMGPSPPAEGSTGDFALPVGLIVGVTALGLLIIGVVNCVIMTQVKKKPLCLQREAKVPHLPADKARGTQGPEQQHLLITAPSSSSSSLESSASALDRRAPTRNQPQAPGVEASGAGEARASTGSSDSSPGGHGTQVNVTCIVNVCSSSDHSSQCSSQASSTMGDTDSSPSESPKDEQVPFSKEECAFRSQLETPETLLGSTEEKPLPLGVPDAGMKPS
modifications: N-glycosylated; modification by bisected N-glycans on TNFR2 significantly suppressed in K562/ADR cells
notes: TNF receptor 2 (TNFR2), human, cDNA cloned from K562 cells; Same construct as m1; host K562/ADR cells have very low GnT-III; also called TNFR2-Flag; source: K562/ADR cells infected by virus with the CSIV-TRE-RfA-CMV-KT-TNFR2 plasmid, on the cell surface; not shown: 3x FLAG, C-terminal, kept
Regarding B1, the “stoichiometry N” value stood at 3.

The values above are taken from paper PMC10033316, “Expression of GnT-III decreases chemoresistance via negatively regulating P-glycoprotein expression: Involvement of the TNFR2-NF-κB signaling pathway” (The Journal of Biological Chemistry, 2023).
